Laboratory results: US20250263469A1

Molecular target: SARS-CoV-2 Spike on pseudotyped virus (PsV) (SARS-CoV-2) (UniProt P0DTC2)
Experiment: cell-based or functional assay

Substance “REGN10987 (recombinant mAb, reference IgG) (antibody)” has a Median IC50, SARS-CoV-2 PsV neutralization of 0.03 µg/mL.
With “REGN10933 (recombinant mAb, reference IgG) (antibody)” the Median IC50, SARS-CoV-2 PsV neutralization was 0.0044 µg/mL.
